PMC7182499 (Journal of inherited metabolic disease, 2019)
Substitutions are numbered along the chain they refer to. Numbers in names are those of the source.

T1: ALDH7A1 (aldehyde dehydrogenase 7A1; antiquitin) (Homo sapiens, UniProt P49419, E427Q)
T1 sequence (P49419 29-539 E427Q): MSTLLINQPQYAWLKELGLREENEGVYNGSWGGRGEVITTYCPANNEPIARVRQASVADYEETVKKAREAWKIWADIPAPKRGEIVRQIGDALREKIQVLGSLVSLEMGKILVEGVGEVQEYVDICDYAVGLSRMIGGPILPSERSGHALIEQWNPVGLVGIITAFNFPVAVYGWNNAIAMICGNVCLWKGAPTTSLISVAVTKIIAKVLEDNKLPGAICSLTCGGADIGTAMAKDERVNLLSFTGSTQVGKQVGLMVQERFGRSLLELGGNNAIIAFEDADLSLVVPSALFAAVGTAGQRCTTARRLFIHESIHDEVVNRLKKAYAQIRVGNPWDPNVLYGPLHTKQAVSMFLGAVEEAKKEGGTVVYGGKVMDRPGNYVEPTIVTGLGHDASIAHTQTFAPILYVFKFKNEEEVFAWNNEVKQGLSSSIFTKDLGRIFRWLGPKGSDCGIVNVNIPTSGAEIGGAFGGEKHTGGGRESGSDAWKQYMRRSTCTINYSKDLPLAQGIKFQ

T2: ALDH7A1 (aldehyde dehydrogenase 7A1; antiquitin) (Homo sapiens, UniProt P49419, E427G)
T2 sequence (P49419 29-539 E427G): T1 sequence (P49419 29-539 E427Q) with Q399G

B1: wild-type ALDH7A1 (aldehyde dehydrogenase 7A1) (enzyme, human, UniProt P49419 27-539, looked up)
chain: AFMSTLLINQPQYAWLKELGLREENEGVYNGSWGGRGEVITTYCPANNEPIARVRQASVADYEETVKKAREAWKIWADIPAPKRGEIVRQIGDALREKIQVLGSLVSLEMGKILVEGVGEVQEYVDICDYAVGLSRMIGGPILPSERSGHALIEQWNPVGLVGIITAFNFPVAVYGWNNAIAMICGNVCLWKGAPTTSLISVAVTKIIAKVLEDNKLPGAICSLTCGGADIGTAMAKDERVNLLSFTGSTQVGKQVGLMVQERFGRSLLELGGNNAIIAFEDADLSLVVPSALFAAVGTAGQRCTTARRLFIHESIHDEVVNRLKKAYAQIRVGNPWDPNVLYGPLHTKQAVSMFLGAVEEAKKEGGTVVYGGKVMDRPGNYVEPTIVTGLGHDASIAHTETFAPILYVFKFKNEEEVFAWNNEVKQGLSSSIFTKDLGRIFRWLGPKGSDCGIVNVNIPTSGAEIGGAFGGEKHTGGGRESGSDAWKQYMRRSTCTINYSKDLPLAQGIKFQ
B2: ALDH7A1 E427Q (Glu427Gln) (enzyme, human, UniProt P49419 27-539, looked up)
chain: B1 chain with E401Q
B3: ALDH7A1 E427D (Glu427Asp) (enzyme, human, UniProt P49419 27-539, looked up)
chain: B1 chain with E401D
B4: ALDH7A1 E427G (Glu427Gly) (enzyme, human, UniProt P49419 27-539, looked up)
chain: B1 chain with E401G

Columns and labels:
[1] = biological target: T1, ALDH7A1 (aldehyde dehydrogenase 7A1; antiquitin); test: X-ray crystal structure, […] Å, co-crystallisation; assay type: binding; conditions: 15 mM NAD+; pH 6.2; ADP portion ordered, NMN disordered
[2] = biological target: T2, ALDH7A1 (aldehyde dehydrogenase 7A1; antiquitin); test: X-ray crystal structure, […] Å, co-crystallisation; assay type: binding; conditions: 5 mM NAD+; pH 6.5; NMN disordered
SAXS = biological target: the molecule itself; test: SAXS
crystal structure = biological target: the molecule itself; test: crystal structure

Molecule | stoichiometry N (crystal structure) | also measured
NC(=O)c1ccc[n+]([C@@H]2O[C@H](COP(=O)(O)OP(=O)(O)OC[C@H]3O[C@@H](n4cnc5c(N)ncnc54)[C@H](O)[C@@H]3O)[C@@H](O)[C@H]2O)c1 [NAD^+] | – | X-ray crystal structure, 2.06 Å, co-crystallisation [1]: The crystal structure of E427Q complexed with NAD^+ was determined in space group C2; X-ray crystal structure, 2.15 Å, co-crystallisation [2]: the NMN of NAD^+ bound to E427G is disordered
B1 | – | stoichiometry N (SAXS): 4
B2 | 4 | –
B3 | 4 | –
B4 | 4 | –
